Test results from paper doi:10.1101/2021.04.23.441074 (bioRxiv, 2021).

Biological target: MSH2-MSH3 (purified heterodimer) (human, UniProt P43246 1-934; P20585 1-1137)
Experiment: native gel or EMSA

Chain of MSH2-MSH3 (purified heterodimer) (P43246 whole entry, chain 1 of 2): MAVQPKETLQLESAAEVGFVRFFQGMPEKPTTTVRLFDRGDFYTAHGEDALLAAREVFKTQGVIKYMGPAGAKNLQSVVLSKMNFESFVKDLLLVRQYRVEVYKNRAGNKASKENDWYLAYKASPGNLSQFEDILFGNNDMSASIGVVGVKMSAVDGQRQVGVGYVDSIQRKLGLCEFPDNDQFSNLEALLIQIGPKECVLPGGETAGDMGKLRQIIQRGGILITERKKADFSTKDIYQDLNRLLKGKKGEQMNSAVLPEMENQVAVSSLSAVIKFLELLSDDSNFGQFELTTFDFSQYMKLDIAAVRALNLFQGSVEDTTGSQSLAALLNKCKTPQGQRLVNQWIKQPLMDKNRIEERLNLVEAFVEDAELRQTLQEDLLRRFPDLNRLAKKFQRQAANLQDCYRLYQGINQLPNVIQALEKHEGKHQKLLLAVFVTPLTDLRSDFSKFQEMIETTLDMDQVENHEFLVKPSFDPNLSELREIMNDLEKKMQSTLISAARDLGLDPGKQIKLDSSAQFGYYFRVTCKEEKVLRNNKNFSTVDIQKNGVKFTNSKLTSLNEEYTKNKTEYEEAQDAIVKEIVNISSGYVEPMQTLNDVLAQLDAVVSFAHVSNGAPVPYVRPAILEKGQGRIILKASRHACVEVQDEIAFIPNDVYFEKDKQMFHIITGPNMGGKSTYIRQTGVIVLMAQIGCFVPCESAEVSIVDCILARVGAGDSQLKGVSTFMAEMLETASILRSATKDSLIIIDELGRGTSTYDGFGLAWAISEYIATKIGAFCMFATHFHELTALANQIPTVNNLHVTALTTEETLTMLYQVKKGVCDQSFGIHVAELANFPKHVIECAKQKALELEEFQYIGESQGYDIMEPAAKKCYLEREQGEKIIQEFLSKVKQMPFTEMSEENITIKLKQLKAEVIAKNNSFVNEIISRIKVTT
Chain of MSH2-MSH3 (purified heterodimer) (P20585 whole entry, chain 2 of 2): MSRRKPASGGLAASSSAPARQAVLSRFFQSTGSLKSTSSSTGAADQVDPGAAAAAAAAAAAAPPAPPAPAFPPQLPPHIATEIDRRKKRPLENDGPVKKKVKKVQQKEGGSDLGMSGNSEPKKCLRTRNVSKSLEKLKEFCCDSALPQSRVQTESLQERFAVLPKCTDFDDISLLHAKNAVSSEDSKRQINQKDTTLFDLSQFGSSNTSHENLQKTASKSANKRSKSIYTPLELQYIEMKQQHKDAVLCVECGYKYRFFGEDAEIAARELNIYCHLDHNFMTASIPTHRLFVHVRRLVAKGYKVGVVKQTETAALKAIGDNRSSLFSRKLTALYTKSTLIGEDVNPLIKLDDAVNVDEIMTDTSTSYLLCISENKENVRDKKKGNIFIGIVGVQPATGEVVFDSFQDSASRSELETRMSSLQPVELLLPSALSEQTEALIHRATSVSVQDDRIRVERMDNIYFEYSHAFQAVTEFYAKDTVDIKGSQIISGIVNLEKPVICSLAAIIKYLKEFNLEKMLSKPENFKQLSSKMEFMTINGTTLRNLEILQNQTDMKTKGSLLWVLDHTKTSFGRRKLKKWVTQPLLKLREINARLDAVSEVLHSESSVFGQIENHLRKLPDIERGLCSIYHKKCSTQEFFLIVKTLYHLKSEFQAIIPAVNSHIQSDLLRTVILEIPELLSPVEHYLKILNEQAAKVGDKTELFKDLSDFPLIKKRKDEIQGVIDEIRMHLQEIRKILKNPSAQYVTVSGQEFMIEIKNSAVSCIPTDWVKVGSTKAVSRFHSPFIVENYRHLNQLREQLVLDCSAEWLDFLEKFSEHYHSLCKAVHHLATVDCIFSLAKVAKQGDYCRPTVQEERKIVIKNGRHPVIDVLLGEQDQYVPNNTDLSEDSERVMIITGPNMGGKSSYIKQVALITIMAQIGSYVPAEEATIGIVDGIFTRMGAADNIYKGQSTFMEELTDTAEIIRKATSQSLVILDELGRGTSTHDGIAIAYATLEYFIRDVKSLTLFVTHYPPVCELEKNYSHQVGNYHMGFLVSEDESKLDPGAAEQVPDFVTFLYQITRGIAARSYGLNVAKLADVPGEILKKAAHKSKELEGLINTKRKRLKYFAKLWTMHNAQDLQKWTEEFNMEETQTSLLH

B1: SMARCAD1 (purified) (enzyme, human, UniProt Q9H4L7 1-1026, looked up)
chain: MNLFNLDRFRFEKRNKIEEAPEATPQPSQPGPSSPISLSAEEENAEGEVSRANTPDSDITEKTEDSSVPETPDNERKASISYFKNQRGIQYIDLSSDSEDVVSPNCSNTVQEKTFNKDTVIIVSEPSEDEESQGLPTMARRNDDISELEDLSELEDLKDAKLQTLKELFPQRSDNDLLKLIESTSTMDGAIAAALLMFGDAGGGPRKRKLSSSSEPYEEDEFNDDQSIKKTRLDHGEESNESAESSSNWEKQESIVLKLQKEFPNFDKQELREVLKEHEWMYTEALESLKVFAEDQDMQYVSQSEVPNGKEVSSRSQNYPKNATKTKLKQKFSMKAQNGFNKKRKKNVFNPKRVVEDSEYDSGSDVGSSLDEDYSSGEEVMEDGYKGKILHFLQDASIGELTLIPQCSQKKAQKITELRPFNSWEALFTKMSKTNGLSEDLIWHCKTLIQERDVVIRLMNKCEDISNKLTKQVTMLTGNGGGWNIEQPSILNQSLSLKPYQKVGLNWLALVHKHGLNGILADEMGLGKTIQAIAFLAYLYQEGNNGPHLIVVPASTIDNWLREVNLWCPTLKVLCYYGSQEERKQIRFNIHSRYEDYNVIVTTYNCAISSSDDRSLFRRLKLNYAIFDEGHMLKNMGSIRYQHLMTINANNRLLLTGTPVQNNLLELMSLLNFVMPHMFSSSTSEIRRMFSSKTKSADEQSIYEKERIAHAKQIIKPFILRRVKEEVLKQLPPKKDRIELCAMSEKQEQLYLGLFNRLKKSINNLEKNTEMCNVMMQLRKMANHPLLHRQYYTAEKLKEMSQLMLKEPTHCEANPDLIFEDMEVMTDFELHVLCKQYRHINNFQLDMDLILDSGKFRVLGCILSELKQKGDRVVLFSQFTMMLDILEVLLKHHQHRYLRLDGKTQISERIHLIDEFNTDMDIFVFLLSTKAGGLGINLTSANVVILHDIDCNPYNDKQAEDRCHRVGQTKEVLVIKLISQGTIEESMLKINQQKLKLEQDMTTVDEGDEGSMPADIATLLKTSMGL
  binding result: binds
